The results in this text go back to paper PMC10716038, “Talin and kindlin use integrin tail allostery and direct binding to activate integrins” (Nature Structural & Molecular Biology, 2023).

“And” between values parts separate entries of the source, which are not always exact repeats. Equal values may be shown once.

Holding throughout (conditions): both partners purified
The target of assay [1] is T1, biotinylated integrin β3 transmembrane and cytoplasmic tail polypeptide (β3-TM–CT) in nanodiscs (UniProt O54890 715-787, biotin (biotin-maleimide)).
T1 construct: integrin β3 TM and CT, residues 715-787; embedded in MSP2N2 nanodiscs with 10% PIP2 or PIP3 and 90% DMPC; held on streptavidin beads; also called b3; source: E. coli BL21 (DE3) Rosetta 2, inclusion bodies, purified (IMAC, cation exchange)
T1 sequence (looked up): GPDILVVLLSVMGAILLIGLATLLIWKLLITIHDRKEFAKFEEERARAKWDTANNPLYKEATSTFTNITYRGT
The experiment in a line: flow cytometry-based reporter-displacement assay (FC-RDA) on beads; biotinylated TM–CT in 10% PIP3/90% DMPC nanodiscs on streptavidin beads; reporter 50 nM 647–KIND2, unlabelled competitor titrated; 20 mM Tris pH 7.5, 200 mM NaCl, room temperature; IC50 of individual experiments; charged lipids contribute to the binding. On the technique in general: Flow cytometry measures light scatter and fluorescence of single cells or particles in a stream.

Assay [2] concerns the target T1, biotinylated integrin β3 transmembrane …. The experiment in a line: flow cytometry-based reporter-displacement assay (FC-RDA) on beads; biotinylated TM–CT in 10% PIP3/90% DMPC nanodiscs on streptavidin beads; reporter 100 nM 565–THD1, unlabelled competitor titrated; 20 mM Tris pH 7.5, 200 mM NaCl, room temperature; IC50 of individual experiments; charged lipids contribute to the binding.

Assay [3] has as its target T2, biotinylated integrin β1 transmembrane and cytoplasmic tail polypeptide (β1-TM–CT) in nanodiscs (UniProt P09055 726-798, biotin (biotin-maleimide)).
T2 construct: integrin β1 TM and CT, residues 726-798; embedded in MSP2N2 nanodiscs with 10% PIP2 or PIP3 and 90% DMPC, on average one TM–CT per nanodisc; held on streptavidin beads; also called b1; source: E. coli BL21 (DE3) Rosetta 2, inclusion bodies, purified (IMAC, cation exchange)
The experiment in a line: flow cytometry-based reporter-displacement assay (FC-RDA) on beads; biotinylated TM–CT in 10% PIP2/90% DMPC nanodiscs on streptavidin beads; reporter 50 nM 647–KIND2, unlabelled competitor titrated; 20 mM Tris pH 7.5, 200 mM NaCl, room temperature; IC50 of individual experiments; charged lipids contribute to the binding.

Assay [4] deals with T1, biotinylated integrin β3 transmembrane …. The experiment in a line: flow cytometry-based reporter-displacement assay (FC-RDA) on beads; biotinylated TM–CT in PIP2-containing nanodiscs on streptavidin beads; reporter 565–THD1-K402E, unlabelled competitor titrated; IC50 of individual experiments.
Assay [5] concerns the target T2, biotinylated integrin β1 transmembrane …. The assay is described as above.
Assay [6] deals with T1, biotinylated integrin β3 transmembrane …. The experiment in a line: flow cytometry-based reporter-displacement assay (FC-RDA) on beads; biotinylated TM–CT in PIP2-containing nanodiscs on streptavidin beads; reporter 647–KIND2-Y13A, unlabelled competitor titrated; IC50 of individual experiments.
In assay [7] the target is T2, biotinylated integrin β1 transmembrane …. The description is as above.
Assay [8] shares this target. The experiment in a line: flow cytometry-based reporter-displacement assay (FC-RDA) on beads; biotinylated TM–CT in 10% PIP2/90% DMPC nanodiscs on streptavidin beads; reporter 100 nM 565–THD1, unlabelled competitor titrated; 20 mM Tris pH 7.5, 200 mM NaCl, room temperature; IC50 of individual experiments; charged lipids contribute to the binding.
Assay [9] deals with T1, biotinylated integrin β3 transmembrane …. The experiment in a line: flow cytometry-based reporter-displacement assay (FC-RDA) on beads; biotinylated TM–CT in PIP3-containing nanodiscs on streptavidin beads; reporter 647–KIND2-Y13A, unlabelled competitor titrated; IC50 of individual experiments.
For assay [10], the target named is T2, biotinylated integrin β1 transmembrane …. Described as above.
For assay [11], the target named is T1, biotinylated integrin β3 transmembrane …. The experiment in a line: flow cytometry-based reporter-displacement assay (FC-RDA) on beads; biotinylated TM–CT in 10% PIP3/90% DMPC nanodiscs on streptavidin beads; reporter 100 nM 565–THD1, unlabelled competitor titrated; 20 mM Tris pH 7.5, 200 mM NaCl, room temperature; IC50 of individual experiments; charged lipids contribute to the binding. This is another data set of the same source.

The target in assay [12] is T2, biotinylated integrin β1 transmembrane …. Described as above.
Assay [13] deals with T1, biotinylated integrin β3 transmembrane …. The experiment in a line: flow cytometry-based reporter-displacement assay (FC-RDA) on beads; biotinylated TM–CT in 10% PIP2/90% DMPC nanodiscs on streptavidin beads; reporter 50 nM 647–KIND2, unlabelled competitor titrated; 20 mM Tris pH 7.5, 200 mM NaCl, room temperature; IC50 of individual experiments; charged lipids contribute to the binding.

The target of assay [14] is T2, biotinylated integrin β1 transmembrane …. The description is as above. This is another data set of the same source.
For assay [15] the target is unchanged. The experiment in a line: flow cytometry-based reporter-displacement assay (FC-RDA) on beads; biotinylated TM–CT in 10% PIP3/90% DMPC nanodiscs on streptavidin beads; reporter 50 nM 647–KIND2, unlabelled competitor titrated; 20 mM Tris pH 7.5, 200 mM NaCl, room temperature; IC50 of individual experiments; charged lipids contribute to the binding.

T2 sequence (P09055 726-798): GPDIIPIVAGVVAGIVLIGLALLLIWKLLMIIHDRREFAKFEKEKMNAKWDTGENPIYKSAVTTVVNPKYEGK

B1: kindlin-2 (KIND2) (natural protein, UniProt Q8CIB5 1-680, looked up)
chain: MALDGIRMPDGCYADGTWELSVHVTDLNRDVTLRVTGEVHIGGVMLKLVEKLDVKKDWSDHALWWEKKRTWLLKTHWTLDKCGIQADAKLQFTPQHKLLRLQLPNMKYVKVKVNFSDRVFKAVSDICKTFNIRHPEELSLLKKPRDPTKKKKKKLDDQSEDEALELEGPLIMPGSGSIYSSPGLYSKTMTPTYDAHDGSPLSPTSAWFGDSALSEGNPGILAVSQPVTSPEILAKMFKPQALLDKAKTNQGWLDSSRSLMEQDVKENEALLLRFKYYSFFDLNPKYDAIRINQLYEQAKWALLLEEIECTEEEMMMFAALQYHINKLSIMTSENHLNNSDKEVDEVDAALSDLEITLEGGKTSTILGDITSIPELADYIKVFKPKKLTLKGYKQYWCTFKDTSISCYKSREESSGTPAHQLNLRGCEVTPDVNISGQKFNIKLLIPVAEGMNEIWLRCDNEKQYAHWMAACRLASKGKTMADSSYNLEVQNILSFLKMQHLNPDPQLIPDQITTDVNPECLVSPRYLKKYKSKQITARILEAHQNVAQMSLIEAKMRFIQAWQSLPEFGITHFIARFQGGKREELIGIAYNRLIRMDASTGDAIKTWRFSNMKQWNVNWEIKMVTVEFADEVRLSFICTEVDCKVVHEFIGGYIFLSTRAKDQNESLDEEMFYKLTSGWV
notes: kindlin-2 (KIND2), recombinant; with the F1 loop and the PH domain (unlike ΔKIND2); source: E. coli Rosetta, purified (IMAC, SEC); not shown: His10-SUMO, N-terminal, cleaved
On to B1, for which the IC50 in [1] was 79 nM and 90 nM and 69 nM; in [2] it was 760 nM and 573 nM and 678 nM; in assay [3] it was 151 nM and 155 nM and 176 nM and 77 nM; in [4] it was 116 nM and 65 nM; in [5], 514 nM and 512 nM and 396 nM and 487 nM.

B2: KIND2 Y13A (natural protein, UniProt Q8CIB5 1-680, looked up)
chain: MALDGIRMPDGCAADGTWELSVHVTDLNRDVTLRVTGEVHIGGVMLKLVEKLDVKKDWSDHALWWEKKRTWLLKTHWTLDKCGIQADAKLQFTPQHKLLRLQLPNMKYVKVKVNFSDRVFKAVSDICKTFNIRHPEELSLLKKPRDPTKKKKKKLDDQSEDEALELEGPLIMPGSGSIYSSPGLYSKTMTPTYDAHDGSPLSPTSAWFGDSALSEGNPGILAVSQPVTSPEILAKMFKPQALLDKAKTNQGWLDSSRSLMEQDVKENEALLLRFKYYSFFDLNPKYDAIRINQLYEQAKWALLLEEIECTEEEMMMFAALQYHINKLSIMTSENHLNNSDKEVDEVDAALSDLEITLEGGKTSTILGDITSIPELADYIKVFKPKKLTLKGYKQYWCTFKDTSISCYKSREESSGTPAHQLNLRGCEVTPDVNISGQKFNIKLLIPVAEGMNEIWLRCDNEKQYAHWMAACRLASKGKTMADSSYNLEVQNILSFLKMQHLNPDPQLIPDQITTDVNPECLVSPRYLKKYKSKQITARILEAHQNVAQMSLIEAKMRFIQAWQSLPEFGITHFIARFQGGKREELIGIAYNRLIRMDASTGDAIKTWRFSNMKQWNVNWEIKMVTVEFADEVRLSFICTEVDCKVVHEFIGGYIFLSTRAKDQNESLDEEMFYKLTSGWV
notes: kindlin-2 (KIND2), recombinant, Y13A; source: E. coli Rosetta, purified (IMAC, SEC); not shown: His10-SUMO, N-terminal, cleaved
Turning to B2, the IC50 in [6] is 112 nM and 238 nM and 305 nM; in assay [7] it was 78 nM and 91 nM and 124 nM; in assay [8], 203 nM and 479 nM and 290 nM; in [9], 121 nM and 167 nM and 233 nM; in assay [10] it was 56 nM and 119 nM and 60 nM; in assay [11] it was 176 nM and 234 nM and 205 nM and 83 nM. Also, the IC50 in [12] is 168 nM and 223 nM and 116 nM.

B3: THD1 K402E (domain or fragment, UniProt P26039 1-405, looked up)
chain: MVALSLKISIGNVVKTMQFEPSTMVYDACRMIRERIPEALAGPPNDFGLFLSDDDPKKGIWLEAGKALDYYMLRNGDTMEYRKKQRPLKIRMLDGTVKTIMVDDSKTVTDMLMTICARIGITNHDEYSLVRELMEEKKDEGTGTLRKDKTLLRDEKKMEKLKQKLHTDDELNWLDHGRTLREQGVEEHETLLLRRKFFYSDQNVDSRDPVQLNLLYVQARDDILNGSHPVSFDKACEFAGFQCQIQFGPHNEQKHKAGFLDLKDFLPKEYVKQKGERKIFQAHKNCGQMSEIEAKVRYVKLARSLKTYGVSFFLVKEKMKGKNKLVPRLLGITKECVMRVDEKTKEVIQEWSLTNIKRWAASPKSFTLDFGDYQDGYYSVQTTEGEQIAQLIAGYIDIILKEKKS
notes: talin-1 (TLN1) head domain, residues 1-405, K402E; source: E. coli (DE3) Rosetta 2, purified (IMAC, SEC); not shown: His10-SUMO, N-terminal, cleaved
Regarding B3, the IC50 was 186 nM and 206 nM and 276 nM and 136 nM in assay [13]; 271 nM and 366 nM and 201 nM and 258 nM in [14]; 332 nM and 291 nM and 217 nM and 447 nM in assay [15].

A word on the IC50: it is the concentration that inhibits the measured activity by half. A lower IC50 goes with greater potency.
